The text below walks through data of publication PMC1952217 (The EMBO Journal, 2007).

What all share (assay): FRET or BRET
A general note: In BRET a luciferase serves as donor, and the signal depends on an acceptor being close.

For test [1], the target named is T1, Smc1 tagged at its C-terminus with CFP or YFP (S. cerevisiae, UniProt P32908 1-1225).
T1 sequence: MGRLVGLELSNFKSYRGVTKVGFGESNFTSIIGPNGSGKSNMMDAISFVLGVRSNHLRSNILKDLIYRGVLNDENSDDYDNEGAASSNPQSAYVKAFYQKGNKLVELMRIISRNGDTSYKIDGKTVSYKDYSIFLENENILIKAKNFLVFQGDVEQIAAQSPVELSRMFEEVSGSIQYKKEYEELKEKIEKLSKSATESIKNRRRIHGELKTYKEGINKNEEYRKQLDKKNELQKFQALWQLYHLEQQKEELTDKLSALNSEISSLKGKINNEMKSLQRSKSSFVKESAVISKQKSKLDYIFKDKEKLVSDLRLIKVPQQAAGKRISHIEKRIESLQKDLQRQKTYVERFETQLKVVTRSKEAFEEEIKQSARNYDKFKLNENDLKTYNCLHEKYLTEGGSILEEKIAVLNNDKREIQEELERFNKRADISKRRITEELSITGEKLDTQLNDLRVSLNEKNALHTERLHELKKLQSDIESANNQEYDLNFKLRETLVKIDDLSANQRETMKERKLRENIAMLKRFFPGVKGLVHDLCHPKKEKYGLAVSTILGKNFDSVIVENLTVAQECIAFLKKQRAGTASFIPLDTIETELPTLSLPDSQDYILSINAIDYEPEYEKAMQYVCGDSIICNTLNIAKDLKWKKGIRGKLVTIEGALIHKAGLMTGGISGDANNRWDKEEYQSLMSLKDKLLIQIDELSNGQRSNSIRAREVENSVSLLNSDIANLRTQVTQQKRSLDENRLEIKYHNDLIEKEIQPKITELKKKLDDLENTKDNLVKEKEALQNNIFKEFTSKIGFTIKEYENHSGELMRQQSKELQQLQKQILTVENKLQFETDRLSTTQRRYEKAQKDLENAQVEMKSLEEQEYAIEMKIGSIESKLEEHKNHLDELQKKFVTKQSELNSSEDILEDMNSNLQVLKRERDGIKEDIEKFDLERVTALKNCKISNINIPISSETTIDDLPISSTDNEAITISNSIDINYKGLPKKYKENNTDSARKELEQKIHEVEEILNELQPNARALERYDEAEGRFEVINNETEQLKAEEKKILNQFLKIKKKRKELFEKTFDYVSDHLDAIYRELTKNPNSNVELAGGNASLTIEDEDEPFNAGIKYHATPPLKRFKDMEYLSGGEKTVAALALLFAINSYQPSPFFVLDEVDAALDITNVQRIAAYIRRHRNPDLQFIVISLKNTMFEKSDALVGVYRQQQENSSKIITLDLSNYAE

Test [2] deals with T2, Scc1 with CFP or YFP at its C-terminus (S. cerevisiae, UniProt Q12158 1-566).
T2 sequence: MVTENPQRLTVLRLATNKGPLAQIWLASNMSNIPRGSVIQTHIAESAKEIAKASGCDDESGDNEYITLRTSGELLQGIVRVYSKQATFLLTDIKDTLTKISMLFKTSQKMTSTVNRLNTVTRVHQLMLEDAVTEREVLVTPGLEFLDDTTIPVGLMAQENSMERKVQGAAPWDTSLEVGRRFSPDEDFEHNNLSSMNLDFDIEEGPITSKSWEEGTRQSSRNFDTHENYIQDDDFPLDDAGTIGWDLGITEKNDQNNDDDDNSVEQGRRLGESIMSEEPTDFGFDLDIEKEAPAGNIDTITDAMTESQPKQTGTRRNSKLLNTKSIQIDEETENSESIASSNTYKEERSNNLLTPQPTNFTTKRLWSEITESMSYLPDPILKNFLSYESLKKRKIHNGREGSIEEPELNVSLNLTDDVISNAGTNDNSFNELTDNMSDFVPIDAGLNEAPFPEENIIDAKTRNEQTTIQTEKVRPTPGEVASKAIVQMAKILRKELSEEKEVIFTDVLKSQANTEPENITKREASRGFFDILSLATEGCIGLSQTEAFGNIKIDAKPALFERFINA

In test [3] the target is T3, Smc3 tagged at its C-terminus with CFP or YFP (S. cerevisiae, UniProt P47037 1-1230).
T3 sequence: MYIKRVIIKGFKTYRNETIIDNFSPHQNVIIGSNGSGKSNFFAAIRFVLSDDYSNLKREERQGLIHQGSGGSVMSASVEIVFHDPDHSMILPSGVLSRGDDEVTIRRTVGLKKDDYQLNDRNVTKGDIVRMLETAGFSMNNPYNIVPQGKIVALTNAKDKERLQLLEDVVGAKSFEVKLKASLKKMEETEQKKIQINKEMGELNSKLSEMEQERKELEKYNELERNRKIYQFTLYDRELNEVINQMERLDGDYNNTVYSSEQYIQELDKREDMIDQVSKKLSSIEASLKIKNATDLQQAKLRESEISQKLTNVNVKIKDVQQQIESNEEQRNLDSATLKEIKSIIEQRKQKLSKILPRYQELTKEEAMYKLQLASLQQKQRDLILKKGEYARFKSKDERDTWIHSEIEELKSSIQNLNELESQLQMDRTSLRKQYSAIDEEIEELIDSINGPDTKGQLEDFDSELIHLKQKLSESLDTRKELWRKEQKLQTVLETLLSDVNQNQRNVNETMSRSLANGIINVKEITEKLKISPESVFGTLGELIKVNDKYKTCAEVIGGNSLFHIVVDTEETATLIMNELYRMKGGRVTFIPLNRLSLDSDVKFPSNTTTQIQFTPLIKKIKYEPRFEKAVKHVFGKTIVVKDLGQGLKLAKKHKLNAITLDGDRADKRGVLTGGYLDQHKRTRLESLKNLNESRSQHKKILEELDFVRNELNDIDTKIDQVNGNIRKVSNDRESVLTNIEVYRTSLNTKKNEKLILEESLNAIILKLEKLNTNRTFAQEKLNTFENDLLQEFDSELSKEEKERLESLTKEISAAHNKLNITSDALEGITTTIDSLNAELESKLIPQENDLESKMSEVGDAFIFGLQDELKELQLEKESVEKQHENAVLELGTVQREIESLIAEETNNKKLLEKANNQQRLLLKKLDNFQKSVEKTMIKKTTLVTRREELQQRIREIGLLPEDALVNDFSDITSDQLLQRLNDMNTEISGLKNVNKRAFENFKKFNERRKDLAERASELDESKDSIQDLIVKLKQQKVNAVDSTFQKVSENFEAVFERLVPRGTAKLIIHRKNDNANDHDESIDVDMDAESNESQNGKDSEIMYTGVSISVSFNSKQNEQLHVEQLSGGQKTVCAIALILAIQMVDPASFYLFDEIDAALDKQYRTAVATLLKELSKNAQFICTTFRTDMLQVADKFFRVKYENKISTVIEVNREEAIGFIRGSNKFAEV

B1: Scc3 with CFP or YFP at its C-terminus (natural protein)
chain: MTAVRRSTRIRTKSQVIEEDYDDEQNTSAQHVESDKITAKTQHEEEEEQDTGESEESSSEDDYEDQDDDDYVDTATAKRKSRKRKPKSASNTSSKRQKKKPTSAQKSAVSHAPAYHRSKKDQDQYLEIAKDFQPTELFDILSTSEDVSIEELLREWLETYSENRDKFLQEFINLLLNCCGSVARVEDHDVHSNESSNETIGEIQLLFQRQKLHEFYLLISKENKKRKNFKMGPLYQNFAEFMTKLLEVANDLQLLYVESDEDDTQIVTGNLVLDLLTWLSSFSVCKIRCFRYISTLTLYLFQDYLTQQAVNLEKNYLAKLSKQLSLEEKKKRPNNKTLEKLESTIAETQGSKVVIDSIIDNIVKLCFVHRYKDVSDLIRSESMLHLSIWIKNYPEYFLKVTFLKYFGWLLSDNSVSVRLQVTKILPHLIIQNHNSKSTDNSAIRQVFERFKTKILEVAIRDVNLDVRIHSIQVLTEASSLGYLDDSEILIISSLMFDEEFDPFKTSSFNKRSKFLSTVAKFLARVIKEKFDEFIKTHEDLPKEVDGLEVGPVVQVGIFIKILNDSLIYHLKDCAEVDSRTKIRMLTQAAEFLSPYISTHLKTICNLLISDTESNELIQKLQNSANNNSDDEDVDDEELDITPLFPIDRNSTILYLNVFHGLCAGANNPKIQTKDSVKEIVLPLFYDLLNAASIESADILCPLLESFITFSLDDWISIGYETELKKITDKTIKAFMDSTIGNSKVDMKYDIFAKFIHHIHHFEKKELQEKFLNQIATLKIHLKKFLQEKMDPNNSRDDYKDLTCSLYELYINKLTILGRDYPIEVDEELLQLFLNNFVSRIPIMFQDFDDSTAQEINFKMLVLLATWNLEKWREIIEKVRDYENSISKDLRSVWKPIAAIIGRLNTLVISLAATNETFENINSLFYLKWSACTSLMDIIVAIKIFELKLPADATTWRYSMSEQFPFYLHDNASKVLLKIFLYLESLFAKQVDVQLERVADEDANLNDLPETGFFENIETEFLLFTVKLKGLMKLNILDERFASRVALNKEKLGPLFKKIVDDTIMENPEPNKKNIQKAKSNQTQREKAPLQPNSERETDHANTENNDPDIPMTIDLEPIEESSQNNSELAPIEEHPTVVDAIDNSDEITQD
Regarding B1, the FRETR came out at 1.35 in test [1], 1.4 in test [2] and 1.37 in test [3].
